The target in assay [1] is T1, human IL-18Rα ectodomain (amino acids 19-329), biotinylated (human, UniProt Q13478 19-329, biotin on the AviTag (BirA ligase)).
T1 construct: range 19-329; Secreted from insect cells with gp67 signal peptide (cleaved); also called hIL-18Rα; IL-18R1
T1 sequence: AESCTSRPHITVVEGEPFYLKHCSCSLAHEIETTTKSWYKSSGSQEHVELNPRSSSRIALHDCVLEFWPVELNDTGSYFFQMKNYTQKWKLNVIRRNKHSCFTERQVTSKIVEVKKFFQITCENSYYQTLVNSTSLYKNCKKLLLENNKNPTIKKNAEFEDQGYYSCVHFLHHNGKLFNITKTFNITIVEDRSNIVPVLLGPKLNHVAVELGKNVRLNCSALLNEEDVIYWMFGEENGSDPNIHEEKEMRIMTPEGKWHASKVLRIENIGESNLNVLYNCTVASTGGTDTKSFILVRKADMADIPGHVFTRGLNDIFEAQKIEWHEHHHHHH
Kind of assay: on-yeast binding isotherm, flow cytometry; exponent missing in the cell, derived from c3/c4.

Assay [2] addresses T1, human IL-18Rα ectodomain (amino acids …). The assay can be described thus: on-yeast binding isotherm, flow cytometry; exponent missing in the cell, derived from 20 µM/c4.
The target of assay [3] is T2, mouse IL-18BP (amino acids 31-194), biotinylated (mouse, UniProt Q9Z0M9 29-193, biotin on the AviTag (BirA ligase)).
T2 construct: Secreted from Expi293 cells with H7 signal peptide (cleaved); The printed residue range is the same as for the human protein and may not fit the mouse entry; also called mIL-18BP
T2 sequence: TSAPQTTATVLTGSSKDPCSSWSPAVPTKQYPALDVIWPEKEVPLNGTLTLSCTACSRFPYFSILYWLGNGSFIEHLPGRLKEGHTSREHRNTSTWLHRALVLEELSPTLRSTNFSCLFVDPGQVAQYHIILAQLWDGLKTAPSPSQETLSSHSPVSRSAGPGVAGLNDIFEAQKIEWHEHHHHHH
The assay can be described thus: yeast binding isotherms and SPR.

Bounds are passed on as bounds.

B1: human decoy-resistant IL-18 variant SEQ ID NO: 34 (ligand)
chain: YFGKLESKLSVIRNLNDQVLFIDQGNRPLFEDMTDSDCRDNAPRTIFIISTYKDSQPRGKAVTISVKCEKISTLSCENKIISFKEMNPPDNIKDTKSDIIFFQRDVPGHKHKMQFESSSYEGYFLACEKERDLFKLILKKEDELGDRSIMFTVQNED
notes: Engineered variant of mature human IL-18; tag and display linker not in chains; also called hCS1; hCS-1
B1 yielded a dissociation constant Kd in assay [1] of 64.4 nM.

B2: human decoy-resistant IL-18 variant SEQ ID NO: 52 (ligand)
chain: RFGKLESRLSVIRNLNDQVLFIDQGNRPLFEDMTDSDCRDNAPRTIFIISTYKDSQPRGKAVTISVKCEKISTLSCENKIISFKEMNPPDNIKDTKSDIIFFQRDVPGHKHKMQFESSSYEGYFLACEKERDLFKLILKKEDELGDRSIMFTVQNED
notes: Engineered variant of mature human IL-18; display linker not in chains; also called hH3
Consider B2, for which, in assay [2], the equilibrium dissociation constant (Kd) was 83.8 nM.

B3: human decoy-resistant IL-18 variant SEQ ID NO: 36 (ligand)
chain: RFGKLESKLSVIRNLNDQVLFIDQGNRPLFEDMTDSDCRDNAPRTIFIISTYKDSQPRGKAVTISVKCEKISTLSCENKIISFKEMNPPDNIKDTKSDIIFFQRDVPGHKHKMQFESSSYEGYFLACEKERDLFKLILKKEDELGDRSIMFTVQNED
notes: Engineered variant of mature human IL-18; tag and display linker not in chains; also called hCS3
For the molecule B3, in assay [1], the dissociation constant Kd is 113 nM. That is a sub-micromolar value.

B4: human decoy-resistant IL-18 variant SEQ ID NO: 39 (ligand)
chain: YFGKLESRLSVIRNLNDQVLFIDQGNRPLFEDMTDSDCRDNAPRTIFIISKYKDKQPRAQAVTISVKCEKISTLSCENKIISFKEMNPPDNIKDTKSDIIFFQRDVPGHKHKMQFESSSYEGYFLACEKERDLFKLILKKEDELGDRSIMFTIQNED
notes: Engineered variant of mature human IL-18; display linker not in chains; also called hA8
On to B4, for which, in assay [2], the dissociation constant (Kd) is 57.7 nM. This counts as double-digit nanomolar.

B5: human decoy-resistant IL-18 variant SEQ ID NO: 37 (ligand)
chain: RFGKLESKLSVIRNLNDQVLFIDQGNRPLFEDMTDSDCRDNAPRTIFIISTYRDSQPRGKAVTISVKCEKISTLSCENKIISFKEMNPPDNIKDTKSDIIFFQRNVPGHKYKMQFESSSYEGYFLACEKERDLFKLILKKEDELGDRSIMFTVQNED
notes: Engineered variant of mature human IL-18; tag and display linker not in chains; also called hCS4
Take B5: the Kd in assay [2] came out at 160 nM.

B6: human decoy-resistant IL-18 variant SEQ ID NO: 57 (ligand)
chain: RFGKHESKLSVIRNLNDQVLFIDQGNRPLFEDMTDSDCRDNAPRTIFIISTYRDSQPRGKAVTISVKCEKISTLSCENKIISFKEMNPPDNIKDTKSDIIFFERNVPGHKYKMQFESSSYEGYFLACEKERDLFKLILKKEDELGDRSIMFTVQNED
notes: Engineered variant of mature human IL-18; display linker not in chains; also called hB9
Take B6: in assay [2], binding was put at a Kd of 127 nM.

B7: murine decoy-resistant IL-18 variant SEQ ID NO: 64 (ligand)
chain: NFGRLHCTTAVIRNINDQVLFVDKRQPVFEDMTDIDQSASEPQTRLIIYVYTDGRRRGKAVTLSVKDSKMSTLSCKNKIISFEEMDPPENIDDIQSDLIFFQKKVPGHDKMEFESSLYEGHFLACQKEDDAFKLILKKKDENGDKSVMFTLTNLHQS
notes: Engineered variant of mature mouse IL-18; tag and display linker not in chains; also called mE8; E8
Regarding B7, in assay [3], the Kd was over 1000 nM.

Source of the values: US20240066100A1 (published 2024).
